Measurements as given in patent US20180245075.

Legend:
[1] = molecular target: T1, DpnI binding domain-Dam(R95A) (synRW) (Streptococcus pneumoniae / Escherichia coli) (UniProt P0AEE8); assay: cell_activity; details: N6-methyladenine at A of GATC; with inducible writer and DpnI-VP64; mCherry-Dam(R95A) gave no increase
T1 sequence: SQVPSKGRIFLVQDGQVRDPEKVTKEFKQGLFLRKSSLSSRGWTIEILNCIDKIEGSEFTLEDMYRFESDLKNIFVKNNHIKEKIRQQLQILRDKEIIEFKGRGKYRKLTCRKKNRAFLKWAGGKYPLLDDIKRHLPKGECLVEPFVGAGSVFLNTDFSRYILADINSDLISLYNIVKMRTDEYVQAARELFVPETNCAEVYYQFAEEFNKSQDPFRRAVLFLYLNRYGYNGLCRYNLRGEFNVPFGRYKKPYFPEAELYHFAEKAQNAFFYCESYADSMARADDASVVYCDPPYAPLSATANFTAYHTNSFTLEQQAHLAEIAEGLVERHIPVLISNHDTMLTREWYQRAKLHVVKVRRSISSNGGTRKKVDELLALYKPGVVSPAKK

[2] = molecular target: T2, DpnI binding domain-VP64 (synR-VP64) (Streptococcus pneumoniae) (UniProt P0A459); assay: cell_activity; details: N6-methyladenine at A of GATC; integrated interspersed reporter with synI; >100-fold episomal with ZF-Dam(WT)
T2 sequence: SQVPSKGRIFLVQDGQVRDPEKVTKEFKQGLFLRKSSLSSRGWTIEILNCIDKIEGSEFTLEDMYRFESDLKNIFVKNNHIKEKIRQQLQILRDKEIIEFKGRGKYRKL

GATC (double strand) [adenine-methylated GATC sites of reporter]
activity (fold increase in GFP activation) [1]: 2
activity (fold GFP activation) [2]: 30
